We go through 1 molecule from PMC7969741.

In the test the target is αV integrin (human (endogenous in SV40 immortalized human chondrocytes)).

Non-standard residues stand in square brackets, D forms with d.

In turn, cyclo(RGD[dF]K) (also: conjugated to 3' end of Cy3-labelled 18-nt ssDNA) [cyclic peptide RGDfK (cRGDfK)] displayed a tension gauge tether (TGT) assay: rupture of RGDfK-dsDNA tethers of 43 and 54 pN tension tolerance and loss of cell attachment, SV40 chondrocytes prechallenged with shear stress of more than 43 pN.
